We go through one molecule from paper PMC6299030, “An Allosteric-Probe for Detection of Alkaline Phosphatase Activity and Its Application in Immunoassay”.

The data set addresses Streptavidin (on Sepharose beads) (UniProt P22629 25-183). Kind of data set: bead binding, flow cytometry and fluorescence microscopy; SA3 released from AP by lambda exo, no ALP; 70 mM Tris-HCl, 10 mM MgCl2, pH 8.0; 200 nM AP in 100 uL, 3 uL SA beads, 5 min at room temperature after enzyme steps at 37 C and 75 C inactivation. Particulars: protein: commercial; tags: immobilized on Sepharose beads; chain copies: 4; label: 5'-FAM; hairpin with bulge. On the technique in general: A flow cytometer gives signals particle by particle.

Sequence of Streptavidin (on Sepharose beads) (P22629 25-183): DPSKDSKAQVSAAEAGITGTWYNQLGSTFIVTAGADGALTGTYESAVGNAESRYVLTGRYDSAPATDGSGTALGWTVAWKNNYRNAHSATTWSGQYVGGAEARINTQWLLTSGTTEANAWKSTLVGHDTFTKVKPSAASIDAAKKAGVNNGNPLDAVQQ

As for ATTGACGCGTGTGACGCAACACTCAAT (structured_DNA) [SA3], the binding result is reported as “binds”.
